According to the supplement of paper PMC10126150:
± gives the standard deviation of the averaged measurements.

system: ATP; test: switch fluorescence ratio, 500 uM ATP over buffer (Cy3 cluster intensity, sum of 5 cycles each) (fold (ratio)); higher = stronger signal-on switching upon ATP binding; sequences stand for … in TCGTCGGCAGCGTCAGATGTGTATAAGAGACAGTTTTTTTTTTTTTTTTTTTTTTTTT…TC; conditions: aptamer strand: ATP DNA aptamer (quencher-CACCTGGGGGAGTATTGCGGAGGAAGG + anchor), 100 nM annealed; ATP concentration: 500 uM
Procedure, shortened: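 The quencher-labelled ATP aptamer, at 100 nM, was annealed to Cy3-labelled switching-strand clusters on a modified Illumina MiSeq flow-cell. The clusters were imaged in selection buffer, then after 15 min with 500 uM ATP at 22 °C, and this buffer/ATP cycle ran five times with NaOH stripping and re-annealing between runs. Per-cluster fluorescence ratios, summed target-cycle over summed buffer-cycle Cy3 intensity, were averaged per switch-domain sequence. Clusters outside 100-1000 RFU were excluded.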
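Further: ATP exposure 15 min at 22 °C before imaging.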

Sequence	switch fluorescence ratio
CTCATGGGTT	1.02 ± 0.0011
CTGTTTCGGT	0.962 ± 0.021
TGCTTAAGTT	0.999 ± 0.021
TTTTTGGTAA	1.01 ± 0.021
AATGCCTTTG	1.02 ± 0.035
TTGCATATTT	1.05 ± 0.033
CTGTCTTATG	1 ± 0.068
TTTATATACG	0.991 ± 0.017
GTTTGGCTTT	1.015 ± 0.0012
GTTATCGGCG	1.01 ± 0.022
ATTGGGGAAG	0.996 ± 0.049
ATTCCATTTG	1.03 ± 0.05
GGGACGGGTA	1.008 ± 0.0015
TACAAATTGT	1.03 ± 0.025
GATGTAAGTG	0.972 ± 0.02
TACCCGCTGT	1.56 ± 0.39
CCGGTTAGAG	1.05 ± 0.014
GGAGTGAGGG	0.985 ± 0.05
GGGGGTGTGT	1.01 ± 0.035
AACTCCACGA	1.26 ± 0.32
CGGGTCGAAA	0.982 ± 0.049
TAATACTGTT	0.888 ± 0.031
TGAGATTGTG	1.02 ± 0.037

Sequence	switch fluorescence ratio
CCTATATTAA	0.9853 ± 0.0066
CGGGCCGAGG	1.02 ± 0.018
GGGTTTTCCA	1.01 ± 0.021
ATGGCAGGG	1.016 ± 0.0061
TATATTATTA	0.985 ± 0.031
GGGCATTGGG	0.996 ± 0.043
GATATATAAT	1.014 ± 0.002
ATTACTAGTT	0.9996 ± 0.0035
GCAGTAAATA	1.009 ± 0.0086
TCGTCAGCGA	2.77 ± 0.06
GATTTTTCAT	1 ± 0.034
ATTTCGGA	0.975 ± 0.034
TGAGCGGTAG	1.028 ± 0.004
GGTAATATAC	1.057 ± 0.0076
TTTGGGGTCT	1.01 ± 0.1
TAATGCTGTG	0.984 ± 0.036
CGAGGGTGGC	0.96 ± 0.11
GGGGGCGGTT	1.02 ± 0.026
AATGTGGGGG	0.996 ± 0.018
GAAGGTAGGG	0.99 ± 0.051
TCGGACTGAG	0.968 ± 0.029
TATCTTACCA	0.988 ± 0.032
TCCACATTCC	1.57 ± 0.35

Sequence	switch fluorescence ratio
TTCAATATAG	1.21 ± 0.29
ACCTACCTCT	1.48 ± 0.14
AACAGCTGTT	0.972 ± 0.035
CTGTTCGGCG	0.979 ± 0.042
TTGCTTGGTT	0.996 ± 0.011
GGTGGTAAGA	0.978 ± 0.074
ACGCATGGGT	1.04 ± 0.028
GTCGGACCCG	0.973 ± 0.019
AGTGTTTAAT	0.999 ± 0.032
TGACGCCTGA	1.02 ± 0.022
TTCTGAGGAT	0.989 ± 0.042
CGGTCGTAAC	1.04 ± 0.018
GGTGATAGCT	0.987 ± 0.076
GCAGGGGGCC	1.4 ± 0.63
ATGATTCAGC	1.03 ± 0.083
TACAGGGGAA	1.09 ± 0.056
TGAGTGGGGG	0.982 ± 0.014
CAAGTACATG	1.2 ± 0.014
TTGTGGTGTG	0.984 ± 0.049
TAAGGGTGGG	1 ± 0.043
TACTCAGTAT	1.0208 ± 0.00084
ATGGAAAGGT	1.009 ± 0.0074
GGGGCCATGG	0.9123 ± 0.006

Sequence	switch fluorescence ratio
GAGGGGGATA	1.03 ± 0.058
TTTGGAAGT	0.991 ± 0.028
AATTTATCAG	1.03 ± 0.039
GCTTGTCTTC	1.005 ± 0.0014
AGGTTTTTGT	0.982 ± 0.036
ATGATTATAT	0.99 ± 0.017
TTGATTAAGC	1.03 ± 0.043
GGTTAAGAAC	0.993 ± 0.019
CGATATTGGT	1 ± 0.017
GTGATGGTTT	0.982 ± 0.013
TGAAGAAAGT	0.998 ± 0.032
GGGAGGTGGT	1.08 ± 0.17
TGAGGGGGAA	1.03 ± 0.033
GGCCCCGTTT	1.04 ± 0.18
GTGTTATCGG	1 ± 0.045
AGCATAAGGC	1.02 ± 0.019
ATTGATTAGA	0.99 ± 0.043
GAAACTAATG	1.01 ± 0.013
TATTGGCGCT	0.984 ± 0.018
GCCAAATTGG	1.02 ± 0.0071
TTGTTGTCTA	0.995 ± 0.015
TTGCATGGTG	1.06 ± 0.03
TAGAATTGTG	1.21 ± 0.33

Sequence	switch fluorescence ratio
AATTGCACCT	1.22 ± 0.05
TGTAAAATGT	0.998 ± 0.029
TTACGGGCGC	0.9684 ± 0.0086
ACTGGGGGTA	1.01 ± 0.025
ATTTGAAAGT	1.02 ± 0.011
TCGAGCTGAA	1.018 ± 0.0016
AAACGAACAT	1.217 ± 0.011
GGTAGATAGT	0.979 ± 0.029
TGGTTGGGGG	0.995 ± 0.024
GGGGGAGATG	0.992 ± 0.028
ACCGTCCAAA	1.03 ± 0.024
TTGGTTCCAT	1.02 ± 0.017
GGTTGGCGTC	0.955 ± 0.041
GACCTGGGTC	1.01 ± 0.0023
CAGGACATTA	0.994 ± 0.058
AAAGGGGTGG	0.992 ± 0.043
TAAACGGGGG	1.04 ± 0.045
TGTAATCGTT	0.964 ± 0.07
TGGAATTGGA	1.03 ± 0.093
